Data on 7 substances can be found in patent publication US20190284266A1.

A value given as a limit tells only on which side of the number the result lay.

In test [1] the target is hyperphosphorylated (pathological) tau from human Alzheimer's disease brain, phosphorylated at serine 396 (human) (UniProt P10636). Put plainly: immunodepletion of AD brain extract with antibody-coated beads, pS396 western blot.
The target of test [2] is tau phosphorylated at Serine 422 in Alzheimer's disease brain extract (human) (UniProt P10636). Put plainly: immunodepletion of AD brain extract with antibody-coated beads, P-S422 western blot. (A western blot detects proteins with antibodies after separation by electrophoresis.)
The target in test [3] is total tau of Alzheimer's disease brain extract (human) (UniProt P10636). Put plainly: immunodepletion of AD brain extract with antibody-coated beads, Tau5 western blot.
The target is the same in test [4]. Put plainly: immunodepletion of AD brain extract with antibody on Protein G magnetic beads; remaining total tau by Tau5 western blot, normalised to gapdh.
In test [5] the target is tau phosphorylated at Serine 199/202 in Alzheimer's disease brain extract (human) (UniProt P10636). Put plainly: immunodepletion of AD brain extract with 5 µg antibody on beads, P-S199/202 western blot.
Test [6] addresses hyperphosphorylated (pathological) tau from human Alzheimer's disease brain, phosphorylated at serine 396 (human) (UniProt P10636). Put plainly: binding of pathological versus non-pathological tau, brain material (Table 5).
The target in test [7] is hyperphosphorylated human tau P301L (0N4R) of rTg4510 mice, 64 kDa and 70 kDa species (human) (UniProt P10636). Described as above.
For test [8], the target named is tau phosphorylated at Serine 199/202 in Alzheimer's disease brain extract (human) (UniProt P10636). Put plainly: immunodepletion of AD brain extract with antibody-coated beads, P-S199/202 western blot.
Test [9] has as its target hyperphosphorylated (pathological) tau from human Alzheimer's disease brain, phosphorylated at serine 396 (human) (UniProt P10636). Put plainly: MSD fluid phase inhibition: antibody pre-incubated with AD-P3, capture on coated mouse C10-2 (competitor); two-site fit, high affinity part; two-site fit, high affinity part (less than 25% of total binding).
The target is the same in test [10]. Put plainly: immunodepletion of AD brain extract with antibody on Protein G magnetic beads; remaining P-S396 tau by western blot, normalised to gapdh.
For test [11] the target is unchanged. Put plainly: MSD fluid phase inhibition of AD-P3 capture, two-site fit.
The target is the same in test [12]. Put plainly: immunodepletion of AD brain extract, pS396 western blot, 75 ng antibody.
Test [13] concerns the target hyperphosphorylated human tau P301L (0N4R) of rTg4510 mice, 64 kDa and 70 kDa species (human) (UniProt P10636). Put plainly: cell-based or functional assay.
Test [14] concerns the target hyperphosphorylated (pathological) tau from human Alzheimer's disease brain, phosphorylated at serine 396 (human) (UniProt P10636). Put plainly: MSD fluid phase inhibition of Ptau antigen capture on C10-2 coated plate (competitor C10-2); upper end of the printed range 10-20 nM.
The target is the same in test [15]. Put plainly: MSD fluid phase inhibition of Ptau antigen capture on C10-2 coated plate (competitor C10-2); lower end of the printed range 10-20 nM.
The target is the same in test [16]. Put plainly: MSD fluid phase inhibition: antibody pre-incubated with AD-P3, capture on coated mouse C10-2 (competitor); two-site fit, low affinity part (predominant); two-site fit, low affinity part (predominant).
Test [17] has the same target. Put plainly: MSD fluid phase inhibition of Ptau antigen capture on C10-2 coated plate (competitor C10-2).
Another test addresses Antibody N32S. Put plainly: MSD peptide inhibition: 1 ng/ml antibody pre-incubated with graded Ptau 386-408 (pS396), then wells coated with Ptau 386-408 (pS396/pS404) (competitor).
In the next test the target is Antibody N32S, A101T. The test is described as above.

In test [1], 2.10.3 antibody yielded an amount of antibody for half of the max effect of 0.63 µg; a max effect, percent of pS396 tau removed of 60%; a percent of pS396 tau removed of 55%. For the same substance, in test [2], the amount of antibody required to remove 50% of the pS422 tau was 0.42 µg and the percent of pS422 tau removed was more than 90%. Also, the percent of total tau removed in test [3] was less than 24%. In [4], this substance registered an EC50 (read off the curve) of 0.3 µg. In test [5], this substance had a max percent reduction of pS199/202 tau of 52%. Besides, the AD/ctrl (ratio of binding to AD brain tau over control brain tau) in [6] was 5 fold. The TG/wt (ratio of binding to transgenic over wild type mouse brain tau) in test [7] was determined as 2 fold.
Turning to “Anti-Tau Therapeutic Antibody NI-105-4E4”, the TG/wt (ratio of binding to transgenic over wild type mouse brain tau) in [7] was 1 fold.
The term IC50 denotes the concentration that inhibits the measured activity by half. Low readings indicate higher potency, high ones lower potency. In test [8], Antibody C10-2 (humanized C10-2) came in with an amount of antibody for 50% of the effect of 0.34 µg and a percent of pS199/202 tau removed of 69%. For the same substance, in test [9], the IC50 came to 14 nM. Besides, in test [1], the amount of antibody for half of the max effect is 0.3 µg and the max effect, percent of pS396 tau removed stood at 88%. In test [2], this substance returned an amount of antibody required to remove 50% of the pS422 tau of 0.27 µg and a percent of pS422 tau removed of more than 90%. The same substance came in with an EC50 (read off the curve) in [10] of 0.2 µg. The share of high affinity binding in the total binding in test [11] was less than 25%. In test [12], this substance gave a percent decrease in the pS396 signal at 75 ng antibody of less than 6%. Further, in test [13], the decrease in aggregated tau in HEK293 cells expressing hTau-P301L seeded with Tg4510 homogenate pre-incubated with antibody (Cisbio tau aggregation assay) was determined as 40%; the reduction of P3 and S1p induced tau seeding in rTg4510 cortical neurons (Cisbio tau aggregation assay) is 23%. Further, the AD/ctrl (ratio of binding to AD brain tau over control brain tau) in test [6] was more than 100 fold. Moreover, in [7], the TG/wt (ratio of binding to transgenic over wild type mouse brain tau) was found to be 118 fold. In addition, the IC50 in test [14] was less than 20 nM. In test [15], this substance had an IC50 of more than 10 nM. The same substance showed an IC50 in test [16] of 630 nM.
For the substance HJ8.5 (antibody), in test [7], the TG/wt (ratio of binding to transgenic over wild type mouse brain tau) was 51 fold.
IPN002 (antibody): in test [7], the TG/wt (ratio of binding to transgenic over wild type mouse brain tau) turned out to be 37 fold.
For PHF-13 (antibody), the IC50 in [17] fell in the range of 500 to 1000 nM.
Ptau 386-408 (pS396) peptide: the IC50 is 50 nM with Antibody N32S and 34 nM in the test with Antibody N32S, A101T.
